First the molecules themselves.
T1: IFN-αF (human, UniProt P01568 24-189)
T1 chain: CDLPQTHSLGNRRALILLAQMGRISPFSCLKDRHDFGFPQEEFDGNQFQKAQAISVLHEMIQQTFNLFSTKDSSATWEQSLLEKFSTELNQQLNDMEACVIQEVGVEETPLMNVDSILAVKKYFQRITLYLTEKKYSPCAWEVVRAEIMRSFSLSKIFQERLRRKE

B1: IFWM3416 (antibody, IgG1, V domains shown)
VH: EVQLVQSGAEVKKPGESLKISCKGSGYSFTSYWIGWVRQMPGKGLEWMGIIDPSDSDTRYSPSFQGQVTISADKSISTAYLQWSSLKASDTAMYYCARHPGLAWAPDFDYWGQGTLVTVSS
VL: DIQMTQSPSSLSASVGDRVTITCRASQSIRNTNLNWYQQKPGKAPKLLIHWASSLQSGVPSRFSGSGSGTDFTLTISSLQPEDFATYYCQQGYDTPFTFGQGTKVEIK
notes: mAb; IgG1/kappa said of the parent and of selected mAbs; also called IFWB3151
B2: IFWM3320 (antibody, IgG1, V domains shown)
VH: B1 VH with A103N
VL: DIQMTQSPSSLSASVGDRVTITCRASQSINGVLNWYQQKPGKAPKLLIYFASSLQSGVPSRFSGSGSGTDFTLTISSLQPEDFATYYCQQSHDFPLTFGQGTKVEIK
B3: IFWM3322 (antibody, IgG1, V domains shown)
VH: B1 VH with A103N
VL: B2 VL with N30A, G31D, V32F, D93S
B4: IFWM3308 (antibody, IgG1, V domains shown)
VH: B1 VH with A103N
VL: B2 VL with N30A, G31E, V32F, H92I
B5: IFWM3328 (antibody, IgG1, V domains shown)
VH: B1 VH with A103N
VL: DIQMTQSPSSLSASVGDRVTITCRASQSINNLNWYQQKPGKAPKLLIYWASSLQSGVPSRFSGSGSGTDFTLTISSLQPEDFATYYCQQGYDTPFTFGQGTKVEIK
B6: IFWM3307 (antibody, IgG1, V domains shown)
VH: B1 VH with A103N
VL: B2 VL with N30G, G31D, V32F, S91A, H92L
B7: IFWM3314 (antibody, IgG1, V domains shown)
VH: B1 VH with A103N
VL: B2 VL with N30D, G31R, V32A, H92F
B8: IFWM3385 (antibody, IgG1, V domains shown)
VH: B1 VH
VL: B2 VL with N30G, G31D, V32F, S91A, H92L
B9: IFWM3405 (antibody, IgG1, V domains shown)
VH: B1 VH
VL: B1 VL with R30A, T32N
B10: IFWM3304 (antibody, IgG1, V domains shown)
VH: B1 VH with A103N
VL: B2 VL with N30G, G31S, V32A, H92Y
B11: IFWM3400 (antibody, IgG1, V domains shown)
VH: B1 VH
VL: B2 VL with N30A, G31D, V32F, D93S
B12: IFWM371 (antibody, IgG1, V domains shown)
VH: B1 VH with A103N
VL: not shown
B13: IFWM3310 (antibody, IgG1, V domains shown)
VH: B1 VH with A103N
VL: B2 VL with N30G, G31K, V32S, H92Y
B14: IFWM3332 (antibody, IgG1, V domains shown)
VH: B1 VH with A103N
VL: B1 VL with R30A, G92W, T95N, F97L

Residue numbers refer to the chain shown, from its start.

The first test addresses T2, IFN-αG (human, UniProt P01569 24-189). The experiment in a line: cell-based or functional assay.
With B1, the “IC50, ISRE assay” value came to 49 pM.

For a further test, the target named is T1, IFN-αF. The test is described as follows: cell-based or functional assay.
As to B1, the “IC50, ISRE assay” value turned out to be 64 pM.

For a further test, the target named is IFN-αH2 (human, UniProt P01570 24-189). The test is described as follows: cell-based or functional assay.
B1: the “IC50, ISRE assay” value was found to be 35 pM.

For a further test, the target named is T3, IFN-αC (human, UniProt P01566 24-189). The test is described as follows: cell-based or functional assay.
Regarding B1, the “IC50, ISRE assay” value was determined as 112 pM.

For another test, the target named is T4, IFN-αWA (human, UniProt P05015 24-189).
T4 construct: Recombinant, HEK293; also called IFN-α16
The test is described as follows: ProteOn SPR, cell supernatant.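 Further: each binding measurement used just a single antigen concentration.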
Excerpt: (§1) To increase the assay throughput, only one concentration of the individual antigen was used.
In turn, B1 had a Kd of 0.069 nM.

In another test the target is T5, IFN-αJ1 (human, UniProt P01567 24-189).
T5 construct: Recombinant, HEK293; also called IFN-α7
The test is described as follows: ProteOn SPR, cell supernatant.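 Further: each binding measurement used just a single antigen concentration.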
Excerpt: as §1
B1 registered an equilibrium dissociation constant (Kd) of 0.068 nM.

In a further test the target is T2, IFN-αG. The test is described as follows: ProteOn SPR, cell supernatant.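 Further: each binding measurement used just a single antigen concentration.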
Excerpt: as §1
The molecule B1 came in with a Kd of 0.029 nM.

The next test deals with T1, IFN-αF. The experiment in a line: ProteOn SPR, cell supernatant.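 Further: each binding measurement used just a single antigen concentration.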
Excerpt: as §1
In the case of B1, the Kd was 0.045 nM.

In a further test the target is T6, IFN-α4a (human, UniProt P05014 24-189).
T6 construct: Recombinant, HEK293; also called IFN-αM1
The test is described as follows: ProteOn SPR, cell supernatant.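 Further: each binding measurement used just a single antigen concentration.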
Excerpt: as §1
B1 came in with a Kd of 0.103 nM.

The next test deals with T7, human IFN-ω (human, UniProt P05000 24-195).
T7 construct: Recombinant, HEK293; also called interferon omega
The test is described as follows: ProteOn SPR, cell supernatant.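 Further: each binding measurement used just a single antigen concentration.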
Excerpt: as §1
For the molecule B1, binding was characterised by a dissociation constant (Kd) of 0.028 nM.

The target in a further test is T3, IFN-αC. The test is described as follows: ProteOn SPR, cell supernatant.
Excerpt: as §1
Consider B1, for which the dissociation constant (Kd) was 0.029 nM.

In another test the target is human IFN-ω (human, UniProt P05000 24-195). The test is described as follows: cell-based or functional assay.
On to B2, for which the “IC50 (pM), ISRE assay” value was 53 pM.
Same read-out and setting: with B3 the figure was 59 pM.
On the same count and under the same terms, the result for B4 reads 40 pM; that for B5, 456 pM.
Still for that read-out and setting: with B6 the figure was 100 pM; with B7, 32 pM; with B8, 68 pM.
Consider B9, for which the “IC50 (pM), ISRE assay” value was determined as 19 pM.
In the case of B10, the “IC50 (pM), ISRE assay” value amounted to 31 pM.
With B11, the “IC50 (pM), ISRE assay” value was found to be 29 pM.
The same measure, in the same setting: with B12 the figure was 43900 pM; with B13, 81 pM.
B14: the “IC50 (pM), ISRE assay” value worked out at 228 pM.

For another test, the target named is IFN-α4a (human, UniProt P05014 24-189). The experiment in a line: cell-based or functional assay.
As to B2, the “IC50 (pM), ISRE assay” value came out at 166 pM.
Same read-out and setting: the result for B3 reads 352 pM.
Same read-out and setting: with B4 the figure was 295 pM; with B5, 1170 pM.
On the same count and under the same terms, with B6 the figure was 501 pM; with B7, 137 pM; with B8, 414 pM.
Consider B9, for which the “IC50 (pM), ISRE assay” value came to 86 pM.
Same read-out and setting: the result for B10 reads 112 pM; that for B11, 220 pM.
Turning to B12, the “IC50 (pM), ISRE assay” value is 32800 pM.
The same measure, in the same setting: with B13 the figure was 169 pM; with B14, 519 pM.

In another test the target is IFN-αWA (human, UniProt P05015 24-189). The experiment in a line: cell-based or functional assay.
With B2, the “IC50 (pM), ISRE assay” value is 633 pM.
Still for that read-out and setting: the result for B3 reads 382 pM; that for B4, 894 pM.
As for B5, the “IC50 (pM), ISRE assay” value came out at 3080 pM.
On to B6, for which the “IC50 (pM), ISRE assay” value is 600 pM.
Still for that read-out and setting: with B7 the figure was 188 pM; with B8, 839 pM.
Still for that read-out and setting: the result for B9 reads 216 pM.
Still for that read-out and setting: the result for B10 reads 237 pM; that for B11, 376 pM; that for B12, 74200 pM.
Regarding B13, the “IC50 (pM), ISRE assay” value came out at 473 pM.
Still for that read-out and setting: the result for B14 reads 947 pM.

For a further test, the target named is IFN-αI (human, UniProt P01571 24-189). The experiment in a line: cell-based or functional assay.
B2: the “IC50 (pM), ISRE assay” value came to 355 pM.
Still for that read-out and setting: with B3 the figure was 460 pM; with B4, 478 pM.
Take B5: the “IC50 (pM), ISRE assay” value came to 2000 pM.
Still for that read-out and setting: with B6 the figure was 752 pM; with B7, 163 pM; with B8, 225 pM.
The same measure, in the same setting: with B9 the figure was 72 pM.
On the same count and under the same terms, with B10 the figure was 157 pM; with B11, 137 pM.
For B13, the “IC50 (pM), ISRE assay” value amounted to 258 pM.
Still for that read-out and setting: the result for B14 reads 893 pM.

In another test the target is IFN-αK (human, UniProt P05013 24-189). The experiment in a line: cell-based or functional assay.
For B2, the “IC50 (pM), ISRE assay” value amounted to 34 pM.
The same measure, in the same setting: with B3 the figure was 71 pM.
Consider B4, for which the “IC50 (pM), ISRE assay” value turned out to be 59 pM.
For B5, the “IC50 (pM), ISRE assay” value is 321 pM.
Still for that read-out and setting: the result for B6 reads 95 pM; that for B7, 65 pM.
B8: the “IC50 (pM), ISRE assay” value amounted to 65 pM.
Same read-out and setting: the result for B9 reads 22 pM; that for B10, 57 pM.
The same measure, in the same setting: the result for B11 reads 35 pM; that for B12, 7300 pM; that for B13, 96 pM.
Still for that read-out and setting: the result for B14 reads 76 pM.

Another test has as its target IFN-αJ1 (human, UniProt P01567 24-189). The test is described as follows: cell-based or functional assay.
On to B2, for which the “IC50 (pM), ISRE assay” value stood at 213 pM.
Same read-out and setting: the result for B3 reads 169 pM; that for B4, 363 pM.
Still for that read-out and setting: the result for B5 reads 1660 pM.
On the same count and under the same terms, the result for B6 reads 328 pM; that for B7, 86 pM; that for B8, 251 pM.
As for B9, the “IC50 (pM), ISRE assay” value was 26 pM.
On the same count and under the same terms, the result for B10 reads 126 pM; that for B11, 154 pM; that for B12, 35700 pM.
The same measure, in the same setting: the result for B13 reads 166 pM.
Same read-out and setting: with B14 the figure was 487 pM.

Values taken from patent publication US20150368338A1 (Janssen / Centocor, published 2015).
